In test [1] the target is human SIRPA Q281A (V5-tagged library clone on HEK-293T cells) (human, UniProt P78324 31-504). Description: flow cytometry of Fab on HEK-293T cells expressing the mutant, normalised to wild-type SIRPA. How it is done:
(§1) Epitope mapping of anti-SIRPA antibodies was performed using an alanine-scanning library created by shotgun mutagenesis of the human SIRPA cDNA sequence. […] Each of the residues representing the SIRPA extracellular domain (amino acids 31-374 of SEQ ID NO:1) was mutated, most to alanine, while alanine codons were mutated to serine.
(§2) The SIRPA mutant library clones, arrayed in a 384-well microplate, were transfected individually into HEK-293T cells and allowed to express for 22 hours. Antibodies were digested to generate Fabs, after which cells were incubated with Fabs diluted in 10% normal goat serum (NGS) (Sigma-Aldrich, St. Louis, MO). Prior to library screening, primary Fab concentrations were determined using an independent immunofluorescence titration curve against cells expressing wild type SIRPA to ensure that signals were within the linear range of detection. Fabs were detected using 7.5 μg/ml AlexaFluor488-conjugated secondary antibody (Jackson ImmunoResearch Laboratories, Westgrove, PA) in 10% NGS. Cells were washed twice with PBS and resuspended in Cellstripper (Cellgro, Manassas, VA) with 0.1% BSA (Sigma-Aldrich, St. Louis, MO). In some cases, higher stringency conditions were used, including increased pH, increased temperature, and increased dissociation time. Mean cellular fluorescence was detected using the Intellicyt high throughput flow cytometer (HTFC, Intellicyt, Albuquerque, NM). Fab reactivities against each mutant clone were calculated relative to wild-type SIRPA protein reactivity by subtracting the signal from mock-transfected controls, and normalizing to the signal from wild-type SIRPA transfected controls.
In general terms: In flow cytometry, cells or beads pass a laser one at a time.

The target of test [2] is human SIRPA R295A (V5-tagged library clone on HEK-293T cells) (human, UniProt P78324 31-504). The test is described as above. Here is the method: as §1, §2
Test [3] has as its target human SIRPA W315A (V5-tagged library clone on HEK-293T cells) (human, UniProt P78324 31-504). The test is described as above. Here is the method: as §1, §2
Test [4] deals with human SIRPA E297A (V5-tagged library clone on HEK-293T cells) (human, UniProt P78324 31-504). The test is described as above. Here is the method: as §1, §2
In test [5] the target is human SIRPA G337A (V5-tagged library clone on HEK-293T cells) (human, UniProt P78324 31-504). Described as above. How it is done:
as §1, §2

Test [6] addresses human SIRPA Q284A (V5-tagged library clone on HEK-293T cells) (human, UniProt P78324 31-504). Described as above. How it is done:
as §1, §2

For test [7], the target named is human SIRPA V302A (V5-tagged library clone on HEK-293T cells) (human, UniProt P78324 31-504). The description is as above. How it is done:
as §1, §2

In test [8] the target is human SIRPA R282A (V5-tagged library clone on HEK-293T cells) (human, UniProt P78324 31-504). The description is as above. How it is done: as §1, §2
The target in test [9] is human SIRPA L285A (V5-tagged library clone on HEK-293T cells) (human, UniProt P78324 31-504). The description is as above. Here is the method: as §1, §2
In test [10] the target is human SIRPA W287A (V5-tagged library clone on HEK-293T cells) (human, UniProt P78324 31-504). The test is described as above. Here is the method:
as §1, §2

For test [11], the target named is T1, soluble human FcgR3A F158 (human, UniProt P08637 17-208).
T1 construct: also called CD16A F158
Description: BLI (Octet RED96), antibody captured by anti-human Fab-CH1, soluble human FcR. How it is done:
(§3) FcR affinity measurements for anti-SIRPA antibody Fc variants were obtained using bio-layer interferometry (BLI) on a Pall ForteBio Octet RED96 instrument. […] Single cycle kinetics were performed with 100 nM of soluble human FcRs flowed over captured antibody to record traces (300 s association time, 300 s dissociation time). Data analysis was performed using ForteBio Data Analysis Software, version 9.0. Standard kinetic buffer (PBS, 0.1% BSA, 0.02% Tween-20, pH 7.2) was used for the assay and for preparing reagents.
A general note: Biolayer interferometry detects binding as a change in optical thickness at a sensor tip.

For test [12], the target named is T2, soluble human FcgR3A V158 (human, UniProt P08637 17-208).
T2 construct: also called CD16A V158
The description is as above. Here is the method:
as §3

Test [13] addresses T3, human SIRPA on human macrophages (primary monocyte-derived macrophages; U937 line) (human, UniProt P78324 31-504). Kind of test: cell-based or functional assay.
For test [14], the target named is T3, human SIRPA on human macrophages …. Description: cell-based or functional assay. This is another data set of the same source.
For the next test, the target named is T4, soluble human FcgR1 (human, UniProt P12314 16-288).
T4 construct: also called FcγRI; CD64
Kind of test: BLI (Octet RED96), antibody captured by anti-human Fab-CH1, 100 nM soluble human FcR. Here is the method: as §3

For test [15], the target named is T5, soluble human FcgR2A H131 (human, UniProt P12318 36-218).
T5 construct: also called CD32A-H131
T5 sequence (looked up): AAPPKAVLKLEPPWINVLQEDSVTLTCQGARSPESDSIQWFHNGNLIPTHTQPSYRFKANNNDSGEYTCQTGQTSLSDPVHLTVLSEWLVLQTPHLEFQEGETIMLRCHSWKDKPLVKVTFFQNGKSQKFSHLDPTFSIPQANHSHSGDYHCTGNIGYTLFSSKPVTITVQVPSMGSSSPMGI
The description is as above. How it is done: as §3

In test [16] the target is T6, soluble human FcgR2A R131 (human, UniProt P12318 36-218).
T6 construct: also called CD32A-R131
T6 sequence (looked up): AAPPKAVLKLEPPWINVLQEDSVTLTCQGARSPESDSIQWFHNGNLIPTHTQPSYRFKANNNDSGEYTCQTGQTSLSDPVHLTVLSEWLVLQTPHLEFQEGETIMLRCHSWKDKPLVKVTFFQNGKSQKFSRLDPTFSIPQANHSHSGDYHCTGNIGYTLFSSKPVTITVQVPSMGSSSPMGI
The test is described as above. How it is done: as §3

The next test addresses T7, soluble human FcgR2B (human, UniProt P31994 46-217).
T7 construct: also called CD32B
T7 sequence (looked up): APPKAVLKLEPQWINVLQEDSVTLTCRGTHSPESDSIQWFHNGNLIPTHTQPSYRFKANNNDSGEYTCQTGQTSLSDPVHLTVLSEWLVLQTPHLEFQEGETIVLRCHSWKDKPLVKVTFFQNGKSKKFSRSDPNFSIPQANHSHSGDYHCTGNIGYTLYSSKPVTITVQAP
The description is as above. How it is done:
as §3

Test [17] deals with T3, human SIRPA on human macrophages …. Description: cell-based or functional assay. This is another data set of the same source.
Test [18] concerns the target T8, histidine-tagged human SIRPA (Sino Biological) (human, UniProt P78324 31-370).
T8 construct: bought, soluble; also called histidine-tagged huSIRPA isoform 1; soluble SIRPA antigen; not shown: histidine tag
Description: BLI (Octet RED96), antibody captured on anti-human IgG Fc sensor, His-tagged SIRPA in solution, 1:1 model. How it is done:
Affinity measurements for the anti-SIRPA antibodies were performed as follows. Bio-layer interferometry (BLI) data were collected on a Pall ForteBio Octet RED96 instrument. Data analysis was performed using ForteBio Data Analysis Software, version 9.0. Standard kinetic buffer (PBS, 0.100 BSA, 0.02% Tween-20, pH 7.2) was used for the assay and for preparing reagents. […] Varying concentrations (0-200 nM) of histidine-tagged human SIRPA (Sino Biological, Beijing, China) were then bound to the captured anti-SIRPA surface (300 s association time, 600 s dissociation time). The resulting BLI signal was obtained as the difference in response from the reference (2.5 μg/mL IgG+0 nM SIRPA) sensor. […] Multi-concentration kinetic analysis was performed using a 1:1 interaction model to extract association and dissociation rate constants (ka and kd, respectively) for each antibody. Binding affinity constants (KD) were calculated from the ratio kd/ka.
Best-fit traces from the resulting sensorgrams were analyzed to calculate association rate, dissociation rate, and affinity values.

Test [19] addresses T3, human SIRPA on human macrophages …. Description: cell-based or functional assay. This is another data set of the same source.
The target of test [20] is T9, human SIRPA v1 on BWZ cells (BWZ-huSIRPA) (human, UniProt P78324 31-504).
T9 construct: also called BWZ cells overexpressing human SIRPA; BWZ-huSIRPA v1 cells
Description: flow cytometry titration on BWZ cells overexpressing huSIRPA, 4 C. How it is done:
Receptor bound antibodies were detected by staining cells with anti-mouse IgG Fc APC or anti-human IgG PE secondary antibody. Serial dilutions of the monoclonal antibodies were added to 10⁵ BWZ cells overexpressing huSIRPA (BWZ-huSIRPA) and allowed to achieve binding equilibrium at 4° C. After addition of fluorescently labeled secondary antibody and brief washing steps, mean fluorescent intensity (MFI) values as a function of titrated antibody concentration was recorded via FACS analysis. Curves were fit using nonlinear regression analysis with Graphpad Prism 6 software.

The target of test [21] is T9, human SIRPA v1 on BWZ cells …. Description: flow cytometry competition on BWZ-huSIRPA v1 cells, competitor: fluorophore-labelled reference m3F9. An excerpt:
IC50 values provide another comparison of relative affinity.

Usually Kd stands for the concentration at which binding is half-saturated. A lower Kd goes with higher affinity. As usually defined, the koff is a measure of how fast the partners let go of each other. The kon is the second-order rate constant of association. A high value points to fast association. A word on the EC50: it is the midpoint of the concentration-response curve. The low end stands for a more potent agent, the high end for a less potent agent. A word on the IC50: it is the point on the concentration scale where inhibition reaches its midpoint. Lower therefore signals higher potency.

T8 sequence (P78324 31-370 limits assumed): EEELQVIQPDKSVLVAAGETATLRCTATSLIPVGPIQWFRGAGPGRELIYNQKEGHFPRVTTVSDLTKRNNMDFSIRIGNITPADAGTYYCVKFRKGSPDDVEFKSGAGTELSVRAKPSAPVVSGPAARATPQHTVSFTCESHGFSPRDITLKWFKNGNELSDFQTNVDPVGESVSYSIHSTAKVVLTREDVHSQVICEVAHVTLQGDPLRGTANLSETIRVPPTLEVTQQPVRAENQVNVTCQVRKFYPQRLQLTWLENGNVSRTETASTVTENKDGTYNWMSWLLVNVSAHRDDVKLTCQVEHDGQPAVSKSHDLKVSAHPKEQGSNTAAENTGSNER
T3 sequence (P78324 31-370): as the sequence (P78324 31-370 limits assumed) above
T9 sequence (P78324 31-504): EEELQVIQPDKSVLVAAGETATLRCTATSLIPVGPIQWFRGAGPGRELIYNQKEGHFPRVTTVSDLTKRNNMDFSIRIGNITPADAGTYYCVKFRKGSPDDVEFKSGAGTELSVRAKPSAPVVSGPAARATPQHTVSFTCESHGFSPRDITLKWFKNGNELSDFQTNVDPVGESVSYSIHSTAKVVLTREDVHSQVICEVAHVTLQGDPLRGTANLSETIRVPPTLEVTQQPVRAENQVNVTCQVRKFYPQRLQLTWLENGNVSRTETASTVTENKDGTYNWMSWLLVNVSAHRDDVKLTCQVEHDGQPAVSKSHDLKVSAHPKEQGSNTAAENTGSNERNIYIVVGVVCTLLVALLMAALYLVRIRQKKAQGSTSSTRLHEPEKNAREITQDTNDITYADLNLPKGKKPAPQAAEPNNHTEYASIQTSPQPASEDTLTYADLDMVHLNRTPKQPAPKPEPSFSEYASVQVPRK
Sequence of human SIRPA L285A (V5-tagged library clone on HEK-293T cells) (P78324 31-504 L285A): as the sequence (P78324 31-504) above, with L255A counted along it
T1 sequence (P08637 17-208 limits assumed): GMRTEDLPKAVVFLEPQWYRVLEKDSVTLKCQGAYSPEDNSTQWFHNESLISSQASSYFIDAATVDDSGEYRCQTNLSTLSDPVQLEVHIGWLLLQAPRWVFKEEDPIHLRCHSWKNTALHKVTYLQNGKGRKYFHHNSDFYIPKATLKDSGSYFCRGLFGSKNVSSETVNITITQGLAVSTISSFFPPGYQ
Sequence of human SIRPA W315A (V5-tagged library clone on HEK-293T cells) (P78324 31-504 W315A): as the sequence (P78324 31-504) above, with W285A counted along it
T2 sequence (P08637 17-208 F176V limits assumed): as the sequence (P08637 17-208 limits assumed) above, with F160V counted along it
Sequence of human SIRPA V302A (V5-tagged library clone on HEK-293T cells) (P78324 31-504 V302A): as the sequence (P78324 31-504) above, with V272A counted along it
T4 sequence (P12314 16-288 limits assumed): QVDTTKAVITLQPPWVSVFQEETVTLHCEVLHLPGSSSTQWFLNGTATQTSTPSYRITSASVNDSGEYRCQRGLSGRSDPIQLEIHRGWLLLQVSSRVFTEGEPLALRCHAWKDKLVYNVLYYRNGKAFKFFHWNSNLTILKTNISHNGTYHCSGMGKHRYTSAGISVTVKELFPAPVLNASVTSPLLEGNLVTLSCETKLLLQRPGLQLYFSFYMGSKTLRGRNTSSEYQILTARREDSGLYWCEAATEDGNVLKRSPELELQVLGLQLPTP
Sequence of human SIRPA R282A (V5-tagged library clone on HEK-293T cells) (P78324 31-504 R282A): as the sequence (P78324 31-504) above, with R252A counted along it
Sequence of human SIRPA E297A (V5-tagged library clone on HEK-293T cells) (P78324 31-504 E297A): as the sequence (P78324 31-504) above, with E267A counted along it
Sequence of human SIRPA W287A (V5-tagged library clone on HEK-293T cells) (P78324 31-504 W287A): as the sequence (P78324 31-504) above, with W257A counted along it
Sequence of human SIRPA Q284A (V5-tagged library clone on HEK-293T cells) (P78324 31-504 Q284A): as the sequence (P78324 31-504) above, with Q254A counted along it
Sequence of human SIRPA R295A (V5-tagged library clone on HEK-293T cells) (P78324 31-504 R295A): as the sequence (P78324 31-504) above, with R265A counted along it
Sequence of human SIRPA Q281A (V5-tagged library clone on HEK-293T cells) (P78324 31-504 Q281A): as the sequence (P78324 31-504) above, with Q251A counted along it
Sequence of human SIRPA G337A (V5-tagged library clone on HEK-293T cells) (P78324 31-504 G337A): as the sequence (P78324 31-504) above, with G307A counted along it

B1: 9C2 Fab (Fab, V domains shown)
VH: EFQLQQSGAELVKPGASVKISCKASGYSLTGYNMNWVKQSRGKSLEWIGNINPHYGSSTYNQNFKDKATLTVDKSSSAAYMQFNSLTSEDSAVYYCAREGYDGVFDYWGQGTTLTVSS
VL: QIVLSQSPAILSASPGEKVTMTCRASSSVSYMHWYQQKPGSSPKPWIYVTSNLASGVPTRFSGSGSGTSYSLTISRVEAEDAATYYCQQWSSNPRTFGGGTKLEIK
Consider B1, for which the “Binding Reactivity (% WT)” value in test [1] turned out to be 14.1 % WT; in test [2] it was 1.8 % WT; in test [3] it was 19 % WT; in test [4], 5.3 % WT; in test [5], 36.3 % WT; in test [6], 6.5 % WT. In addition, the “Binding Reactivity (% WT)” value in [7] was found to be 4.9 % WT; in [8], 4.7 % WT; in [9], 17.9 % WT; in [10], 2.4 % WT.

B2: 3F9-22 hIgG1 NSLF (antibody)
heavy: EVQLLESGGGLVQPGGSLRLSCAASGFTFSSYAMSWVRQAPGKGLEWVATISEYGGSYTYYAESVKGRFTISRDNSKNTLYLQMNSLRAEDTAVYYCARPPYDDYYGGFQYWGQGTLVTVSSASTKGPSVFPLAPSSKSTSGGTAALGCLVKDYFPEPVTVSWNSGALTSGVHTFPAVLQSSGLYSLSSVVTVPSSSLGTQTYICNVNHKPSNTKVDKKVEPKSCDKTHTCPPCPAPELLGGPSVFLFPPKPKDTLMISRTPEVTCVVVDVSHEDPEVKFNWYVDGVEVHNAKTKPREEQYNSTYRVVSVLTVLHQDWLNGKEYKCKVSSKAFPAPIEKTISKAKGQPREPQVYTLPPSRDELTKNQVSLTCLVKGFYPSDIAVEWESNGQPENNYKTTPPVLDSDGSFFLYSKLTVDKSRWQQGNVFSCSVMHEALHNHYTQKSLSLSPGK
light: DIQLTQSPSSLSASVGDRVTITCRASKSVSSGGYSYMHWYQQKPGKAPKLLIYLASNLESGVPSRFSGSGSGTDFTLTISSVQPEDFATYYCQHNRELPVTFGQGTKLEIKRTVAAPSVFIFPPSDEQLKSGTASVVCLLNNFYPREAKVQWKVDNALQSGNSQESVTEQDSKDSTYSLSSTLTLSKADYEKHKVYACEVTHQGLSSPVTKSFNRGEC
notes: also called 3F9-22 NSLF; 3F9-22NSLF
B2: the binding result in [11] is recorded as “no binding (tested: 100 nM)”; in test [12], “no binding (tested: 100 nM)”; with soluble human FcgR1, “binds”; in test [15], “binds”; in test [16] it was “binds”; with soluble human FcgR2B, “binds”. In addition, the “IC50 (nM), SIRPA downregulation on human monocyte-derived macrophages” value in test [13] came to 0.0451 nM. Moreover, in [13], the “Max % DR, SIRPA, human monocyte-derived macrophages” value amounted to 74.6%. Also, the “EC50 (nM), phagocytosis of A375 cells by primary human macrophages” value in test [14] was 0.458 nM. In [14], the “Max, fold increase in phagocytosis over baseline activity” value is 1.77 fold.

B3: 3F9-22 SELF (antibody, human IgG1, kappa)
heavy chain: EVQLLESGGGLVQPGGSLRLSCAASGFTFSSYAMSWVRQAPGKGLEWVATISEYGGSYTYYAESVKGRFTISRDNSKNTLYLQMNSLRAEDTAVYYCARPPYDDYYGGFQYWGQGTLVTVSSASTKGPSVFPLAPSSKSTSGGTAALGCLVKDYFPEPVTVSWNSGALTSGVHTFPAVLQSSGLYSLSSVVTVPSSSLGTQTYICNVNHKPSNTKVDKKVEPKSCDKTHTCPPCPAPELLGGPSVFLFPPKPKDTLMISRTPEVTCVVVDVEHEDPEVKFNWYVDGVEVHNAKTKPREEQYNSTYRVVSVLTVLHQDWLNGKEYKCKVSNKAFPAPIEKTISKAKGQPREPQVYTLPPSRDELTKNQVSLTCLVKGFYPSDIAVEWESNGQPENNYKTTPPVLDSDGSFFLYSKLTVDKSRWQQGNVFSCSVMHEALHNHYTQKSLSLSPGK
light chain: DIQLTQSPSSLSASVGDRVTITCRASKSVSSGGYSYMHWYQQKPGKAPKLLIYLASNLESGVPSRFSGSGSGTDFTLTISSVQPEDFATYYCQHNRELPVTFGQGTKLEIKRTVAAPSVFIFPPSDEQLKSGTASVVCLLNNFYPREAKVQWKVDNALQSGNSQESVTEQDSKDSTYSLSSTLTLSKADYEKHKVYACEVTHQGLSSPVTKSFNRGEC
For the molecule B3, the “IC50 (read off the curve), SIRPA downregulation on primary human macrophages, Dnr. 517” value in test [17] is approximately 0.1 nM.

B4: mAb 14.70.1 (antibody, human IgG4, V domains shown)
VH: EVQLLESGGGLVQPGGSLRLSCAASGFTFSSYAMSWVRQAPGKGLEWVSTISDYGGSYTYYADSVKGRFTISRDNSKNTLYLQMNSLRAEDTAVYYCAKPPYDDYYGGFAYWGQGTLVTVSS
VL: DIQMTQSPSSLSASVGDRVTITCRASKSVSSSGYSYMHWYQQKPGKAPKLLIYLASNLESGVPSRFSGSGSGTDFTLTISSLQPEDFATYYCQHNRELPCTFGQGTKLEIK
notes: also called h3F9 H1/L1; h3F9 IgG4
Turning to B4, in test [18], the Kd was determined as 19 nM, the off-rate (koff) worked out at 0.002 s⁻¹ and the kon is 110000 M⁻¹ s⁻¹. The “IC50 (read off the curve), SIRPA downregulation on primary human macrophages, Dnr 409” value in test [19] is approximately 0.2 nM. Further, in [20], the EC50 is 1.06 nM. The same molecule showed an IC50 in test [21] of 3.3 nM.

The values above are taken from patent publication US20240301071A1 (Alector, published 2024).
